By IC50 is commonly meant the midpoint of a concentration-inhibition curve. High values mean lower potency, low ones higher potency.

Some targets named below: B*35:01; A*29:02; B*40:01; B*27:05.
Common to all, as to assay: HLA-binding assay

E5 55-63 registered a 50% inhibitory concentration (IC50) with B*35:01 of 1.4 nM. In the experiment with A*29:02, E5 65-73 returned an IC50 of 444 nM. In turn, E6 52-61 yielded an IC50 in the experiment with B*35:01 of 51 nM. With E6 81-90, the half-maximal inhibitory concentration (IC50) in the experiment with B*40:01 is 0.54 nM. E6 83-90: in the experiment with B*27:05, the IC50 amounted to 12 nM. In the experiment with B*27:05, E6 137-144 displayed an IC50 of 13 nM.
